The test system of data set [1] is E. coli. In words: Evaluation of antibacterial protein temperature tolerance. The format is physicochemical. Conditions: 30, 40, 50, 60, 70, 80, 90, 100 and 121° C. for 1 hour; control 4° C. As to the method:
Place 100 μl Peocin under 30° C., 40° C., 50° C., 60° C., 70° C., 80° C., 90° C., 100° C. and 121° C. respectively and stand for an hour, all treatment group except 121° C. group is put in the dry bath incubator, which can set to temperature 30° C.˜100° C. The 121° C. group is put in the sterilizer which can proceed wet heat sterilize at 121° C. Use Peocin stored under 4° C. as control group, and use the TSB agar plate containing E. coli to measure antibacterial activity and inhibitory zone diameter after an hour.

In data set [2] the test system is E. coli. The experiment in a line: Antibacterial activity of Peocin expressed in E. coli BL21 (DE3)/pET-28-peocin. The format is cell-based. As to the method: Add 30 μl E. coli BL21 (DE3)/pET-28-peocin bacterial liquid and 3 μl Kanamycin (100 mg/ml) to 3 ml LB culture broth and incubate for 24 hours. After incubation, add 0.5 ml medium and 50 μl Kanamycin (100 mg/ml) in 50 ml LB culture broth, incubate for 3 hours and add 50 μl 1M IPTG to induce expression of high-level production of protein. Incubate for 9 hours, measure the OD600 nm absorbance of bacterial broth, concentrate the bacterial liquid to OD600 nm=60/ml, wash with 1×PBS for once, place the bacterial broth in centrifuge and centrifuge it for 15 minutes with the speed of 1300 rpm. Remove the supernatant, add 2 ml 1×PBS and lyse by ultrasonic machine under 5 seconds on/5 seconds off cycle for 5 minutes, then again place the bacterial broth in centrifuge and centrifuge it for 20 minutes under 4° C. with the speed of 4000 rpm. Extract the supernatant and filter it using 0.45 μm syringe filter, then preserve the sample in 4° C. freezer to await for further steps. Load E. coli BL21 (DE3)/pET-28 and E. coli BL21 (DE3)/pET-28-peocin in the same SDS-PAGE to confirm that the transformed plasmid do express antibacterial protein in high-level production, then test antibacterial activity and measure inhibitory zone of E. coli BL21 (DE3)/pET-28 and E. coli BL21 (DE3)/pET-28-peocin protein sample on TSB medium containing E. coli to confirm the antibacterial ability of expressed protein.

This note sets out measurements from US10689421B2, “Bacteriocin-producing Paenibacillus ehimensis and application thereof” (National Pingtung University of Science and Technology, priority 2018, dated 2020).

B1: Peocin: bacteriocin; DNA starvation/stationary phase protection protein produced by Paenibacillus ehimensis NPUST-1, amino acid SEQ ID NO: 1 (protein, listed as Paenibacillus ehimensis)
chain: MNEQLTVLLNNQIANWSVLYVKLHNYHWYVKGPQFFTLHTKFEELYTEAALHVDALAERLLALGGKPVATMSGSLRLASVREAEGEESAERMVAALVNDFTLIIGELKSGMKYAESVQDETTGDLLLAIHSSLEKHVWMLNAFLGN
For B1, the “antibacterial activity after temperature treatment” value in data set [1] is on record as “maintain original antibacterial activity”. Further, the “antibacterial activity when expressed in E. coli” value in data set [2] (inside E. coli BL21 (DE3)/pET-28-peocin after induction) is given as “no antibacterial activity”. For the same molecule, in data set [2] (supernatant of lysed E. coli BL21 (DE3)/pET-28-peocin, TSB medium containing E. coli), the “antibacterial activity of recombinant protein released outside of E. coli” value is recorded as “antibacterial effect”.
